# Columns and labels:
# Assay type in all cases: biochemical, Brevibacillus laterosporus
# NAGK enzyme [1] = experiment: NAGK enzyme assay, titration with arginine; conditions: NAGK 100 ng/mL; for A540 nm: 70 mM NAG, 30 minutes 37° C., no-arginine control 0.284
# Description: (§1) The NAGK enzyme assay was adapted from the method of Denes (1970). Product formation was quantified using a Spectramax 190 spectrophotometer at 540 nm.
# The following master mix for NAGK in vitro enzyme assays was prepared for the purpose of determining the effect of arginine on NAGK enzyme activity: 50 mM Tris; final pH was 5.5;100 mM hydroxylamine (NH2OH); 10 mM MgCl2; 7 mM ATP; 70 mM NAG.
# This master mix was subdivided into individual wells in a 96-well plate (200 uL/well final volume), and then varying concentrations of arginine (0.15 mM to 10 mM) were then added to individual wells. The enzyme reactions were then initiated by addition of NAGK enzyme (100 ng/mL). Following 30 minutes of incubation at 37° C., the absorbance of each sample was quantified. A control reaction without arginine was prepared an analyzed alongside.
# NAGK enzyme [2] = experiment: NAGK enzyme assay, titration with NAGK enzyme; conditions: 70 mM NAG, 1 hour 37° C.; for A540 nm: buffer control (0.040) subtracted
# Description: NAGK overexpression vector pAX4389 was transformed into electrocompetent E. coli cells (BL21 *DE3, Invitrogen) and single colonies were obtained by selection on the antibiotic kanamycin. An individual colony was then grown in liquid medium (LB broth) until the culture absorbance (at 600 nm) reached 0.6, and then 0.5 mM IPTG was added to induce expression from the T7 promoter. Induction was carried out overnight at 16° C. The following day, the induced culture was centrifuged and the pellet was frozen for two hours at −20° C. After thawing on ice, the pellet was resuspended in […] of lysis buffer (50 mM Hepes, pH 7.0, 50 mM NaCl), treated with Lysozyme (Novagen) at room temperature for 30 minutes, and then sonicated to lyse the cells. Insoluble material was separated from the soluble protein extract through centrifugation. This protein extract was then stored in an ice bucket, and NAGK enzyme assays were prepared a short time later. As a negative control, a control vector was prepared alongside that directed the overexpression of a bacterial EPSPS enzyme in the same base vector (pRSF-1b). This vector was likewise transformed into the same E. coli cell line and a transformant colony was selected for protein overexpression and a protein extract was prepared alongside NAGK.
# as §1
# A master mix for the NAGK in vitro reaction was prepared with the following components: 50 mM Tris, pH 8.0; final pH of the master mix was 5.5; 100 mM hydroxylamine (NH2OH); 10 mM MgCl2; 7 mM ATP; 70 mM N-acetylglutamate (NAG).
# This master mix was subdivided into individual wells in a 96-well plate (200 uL/well final volume), and reactions were then initiated by adding various concentrations of NAGK protein extract into individual sample wells. Following 1 hour of incubation at 37° C., the absorbance of each sample was quantified. The quantity of NAGK protein in the extract was estimated by loading dilutions of the extract on a SDS-polyacrylamide gel alongside known concentrations of a bovine serum albumin standard, and then staining the gel with Coomassie protein stain (Simply Blue, Invitrogen).
# By this method, it was observed that addition of NAGK protein extract at concentrations as low as 1 ng/mL generated an absorbance product at 540 nm. The absorbance results from the enzyme product (N-actylglutamyl-5-phosphate) reacting with hydroxylamine to create the absorbent compound N-acetyglutamyl-5-hydroxamate. The graph (FIG. 1) and table (Table 3) show the absorbance at each of 6 different concentrations of NAGK protein. The baseline absorbance generated by a buffer control (A540=0.04) was subtracted from each NAGK absorbance value.
# NAGK enzyme [3] = experiment: NAGK enzyme assay, titration with substrate (NAG); conditions: 1000 ng/mL NAGK, 1 hour 37° C., no-substrate control (0.041) subtracted
# Description: as §1
# The following master mix for NAGK in vitro enzyme assays was prepared for the purpose of titrating the substrate (NAG) into the reaction: 50 mM Tris; final pH was 5.5; 100 mM hydroxylamine (NH2OH); 10 mM MgCl2; 7 mM ATP; 1000 ng/mL NAGK enzyme (from protein extract).
# This master mix was subdivided into individual wells in a 96-well plate (200 uL/well final volume), and reactions were then initiated by adding various concentrations of the substrate NAG into individual sample wells. The NAG concentrations ranged from 1.6 mM up to 100 mM. Following 1 hour of incubation at 37° C., the absorbance of each sample was quantified. A control reaction without substrate was prepared an analyzed alongside.
molecule,measurement,setting,value
"N=C(N)NCCC[C@H](N)C(=O)O [Arginine, arginine]",A540 nm,NAGK enzyme [1]; Arginine 0.16 mM,0.291
same,A540 nm,NAGK enzyme [1]; Arginine 0.31 mM,0.259
same,A540 nm,NAGK enzyme [1]; Arginine 0.63 mM,0.263
same,A540 nm,NAGK enzyme [1]; Arginine 1.25 mM,0.237
same,A540 nm,NAGK enzyme [1]; Arginine 2.5 mM,0.257
same,A540 nm,NAGK enzyme [1]; Arginine 5 mM,0.266
same,A540 nm,NAGK enzyme [1]; Arginine 10 mM,0.287
same,effect of arginine on product formation by the NAGK enzyme,NAGK enzyme [1]; arginine 0.15 mM to 10 mM,insensitive
"NAGK: arginine-insensitive N-acetyl glutamate kinase (SEQ ID NO:2) from Brevibacillus laterosporus, 6-histidine tagged, E. coli protein extract (protein, Zea mays) MLHEVMVIKCGGSMLEQLPESFYNKLATLQAEGRSIVIVHGGGPAINQMLEQLKIEPTFSNGLRVTDEPTMQAVEMVLSGPINKLVVRKLLHAGGKAWGLSGVDGSLLQAVEKTQGLGLVGSITVVDQAPLQLLLSNGYIPVVSPIAVSEDGRTRYNCNADTVAGAIASALGAKQLLMLTDVPGIWAENELGEKQLLPTVTTEDIQLMMKNQIITGGMIPKVQAALDALAQGVQEVVICKGEAETLDGVVKGMAVGTSISAEMSRGQDSQAFISNKV",lowest concentration of NAGK protein extract that generated an absorbance product at 540 nm,NAGK enzyme [2],1 ng/mL
same,A540 nm,NAGK enzyme [2]; NAGK 1 ng/mL,0.001
same,A540 nm,NAGK enzyme [2]; NAGK 3.9 ng/mL,0.002
same,A540 nm,NAGK enzyme [2]; NAGK 15.6 ng/mL,0.039
same,A540 nm,NAGK enzyme [2]; NAGK 62.5 ng/mL,0.0159
same,A540 nm,NAGK enzyme [2]; NAGK 250 ng/mL,0.518
same,A540 nm,NAGK enzyme [2]; NAGK 1000 ng/mL,0.872
same,A540 nm,NAGK enzyme [3]; NAG 1.6 mM,0.07
same,A540 nm,NAGK enzyme [3]; NAG 3.1 mM,0.13
same,A540 nm,NAGK enzyme [3]; NAG 6.3 mM,0.0212
same,A540 nm,NAGK enzyme [3]; NAG 12.5 mM,0.313
same,A540 nm,NAGK enzyme [3]; NAG 25 mM,0.411
same,A540 nm,NAGK enzyme [3]; NAG 50 mM,0.515
same,A540 nm,NAGK enzyme [3]; NAG 100 mM,0.57

# Source: patent US8692070B2, “Plants with improved nitrogen utilization and stress tolerance” (Iowa Corn Promotion Board, priority 2009, dated 2014)
